Assay [1] deals with plant virus-based immunosorbent nanoparticle (VIN): assembled turnip vein clearing virus (TVCV) virion of coat protein Fc-affinity ligand fusion (CP-FcAL) (turnip vein clearing virus | S. aureus) (UniProt Q88922). The assay can be described thus: pull-down; magnetic separation: VIN covalently coupled to superparamagnetic particles (VIN-MP), hIgG in PBS; eluted with 0.2 M glycine buffer pH 2.5.

Assay [2] shares this target. The assay can be described thus: co-sedimentation; affinity sedimentation: purified VIN mixed in free suspension with a pre-purified target; VIN-target complex pelleted (12,000 x g, 10 min for hIgG; 20,000 x g, 20 min for the Fc-fusions); eluted with 0.1 M glycine-HCl pH 2.5; SDS-PAGE and Western blot. Background: A western blot detects proteins with antibodies after separation by electrophoresis.

In assay [1], “human immunoglobulin G (hIgG) (antibody)” had a binding capacity per mass of magnetic particle (µg hIgG/mg MP) greater than 1000; a hIgG binding/elution load per mass of VIN (mg hIgG/mg VIN) of 0.3; a hIgG elution recovery per mass of VIN, VIN-MP relative to uncoupled VIN of 35 to 55%; a recovery of the feed hIgG of 42%. For the same substance, the recovery of the feed hIgG in assay [2] came out at 95%.

Values taken from article PMC9092175.
